The text below walks through data of patent US12324826B2, “Compositions and methods to mitigate or prevent an immune response to an immunogenic therapeutic molecule in non-human primates” (Jomoco, Corp, priority 2015, dated 2025).

Data set [1] relates to ADA against the potentially immunogenic therapeutic agent. The experiment in a line: NHP preclinical pharmacokinetic study: ADA development with immunosuppressant plus immunogenic therapeutic agent. It counts as in vivo.
Method: Administration of a basiliximab loading dose on Day 0 of the NHP preclinical pharmacokinetic study is followed on Day 1 by administration of a basiliximab maintenance dose and the potentially immunogenic therapeutic agent. Basiliximab is dosed approximately every 10 days to maintain a serum concentration at which CD25 is almost completely bound by basiliximab (about 200 ug/mL). The therapeutic agent is dosed at the proscribed interval and dose.
Administration of a nanocarrier encapsulated rapamycin (NER) loading dose on Day −2, −1, or 0 of the NHP preclinical pharmacokinetic study is followed on Day 0 by administration the potentially immunogenic therapeutic agent. NER and the therapeutic agent are then co-administered at the proscribed dose and intervals of every 1-4 weeks for as many as 12 weeks, following which the immunogenic therapeutic agent may be administered without NER.
Basiliximab is dosed approximately every 10 days to maintain a serum concentration at which CD25 is almost completely bound by basiliximab (about 200 ug/mL). Rapamycin is dosed daily or every other day during the course of basiliximab administration to maintain a rapamycin trough level within the range of 4-12 ng/mL. Following this treatment regimen, the immunogenic therapeutic agent may be administered without the immunosuppressant combination.
For data set [2] the test system is unchanged.
Method: Administration of a basiliximab loading dose on Day 0 of the NHP toxicology study is followed on Day 1 by administration of a basiliximab maintenance dose and the potentially immunogenic therapeutic agent. Basiliximab is dosed approximately every 10 days to maintain a serum concentration at which CD25 is almost completely bound by basiliximab (about 200 ug/mL). The therapeutic agent is dosed at the proscribed interval and dose.
Administration of a nanocarrier encapsulated rapamycin (NER) loading dose on Day −2, −1, or 0 of the NHP toxicology study is followed on Day 0 by administration the potentially immunogenic therapeutic agent. NER and the therapeutic agent are then co-administered at the proscribed dose and intervals of every 1-4 weeks for as many as 12 weeks, following which the immunogenic therapeutic agent may be administered without NER.
Basiliximab is dosed approximately every 10 days to maintain a serum concentration at which CD25 is almost completely bound by basiliximab (about 200 ug/mL). Rapamycin is dosed daily or every other day during the course of basiliximab administration to maintain a rapamycin trough level within the range of 4-12 ng/mL. Following this treatment regimen, the immunogenic therapeutic agent may be administered without the immunosuppressants.

As to basiliximab, in data set [1] (NHP given immunosuppressant and potentially immunogenic therapeutic agent, compared with control group given therapeutic agent alone), the “development of ADA in the immunosuppressant treated group” value is given as “no ADA develops or the level of ADA is sufficiently low”. For the same substance, the “pharmacokinetic parameters of the therapeutic agent in the immunosuppressant treated group” value in data set [1] (NHP given immunosuppressant and therapeutic agent, altered in the control group due to ADA) is on record as “unaltered”. For the same substance, the “development of ADA” value in data set [2] (NHP toxicology study, immunosuppressant plus therapeutic agent, compared with therapeutic agent alone) is reported as “prevents the development of ADA”. Moreover, the “immune mediated drug induced liver injury (DILI) in the group given immunosuppressant and therapeutic agent” value in data set [2] (in vivo) is reported as “develop immune mediated drug induced liver injury (DILI)”.
